From the supplement of paper PMC10065799, “High-throughput profiling of sequence recognition by tyrosine kinases and SH2 domains using bacterial peptide display” (eLife, 2023)

How the values were obtained:
AncSZ = experiment: phosphorylation enrichment, bacterial display (enrichment ratio); higher = better substrate or ligand; peptides without Tyr show the background
EPHB1 = EPHB1 (UniProt P54762); experiment: as above
EPHB2 = EPHB2 (UniProt P29323); experiment: as above
FGFR1 = FGFR1 (UniProt P11362); experiment: as above
FGFR3 = FGFR3 (UniProt P22607); experiment: as above
Sequence of FGFR3 (P22607 whole entry, looked up): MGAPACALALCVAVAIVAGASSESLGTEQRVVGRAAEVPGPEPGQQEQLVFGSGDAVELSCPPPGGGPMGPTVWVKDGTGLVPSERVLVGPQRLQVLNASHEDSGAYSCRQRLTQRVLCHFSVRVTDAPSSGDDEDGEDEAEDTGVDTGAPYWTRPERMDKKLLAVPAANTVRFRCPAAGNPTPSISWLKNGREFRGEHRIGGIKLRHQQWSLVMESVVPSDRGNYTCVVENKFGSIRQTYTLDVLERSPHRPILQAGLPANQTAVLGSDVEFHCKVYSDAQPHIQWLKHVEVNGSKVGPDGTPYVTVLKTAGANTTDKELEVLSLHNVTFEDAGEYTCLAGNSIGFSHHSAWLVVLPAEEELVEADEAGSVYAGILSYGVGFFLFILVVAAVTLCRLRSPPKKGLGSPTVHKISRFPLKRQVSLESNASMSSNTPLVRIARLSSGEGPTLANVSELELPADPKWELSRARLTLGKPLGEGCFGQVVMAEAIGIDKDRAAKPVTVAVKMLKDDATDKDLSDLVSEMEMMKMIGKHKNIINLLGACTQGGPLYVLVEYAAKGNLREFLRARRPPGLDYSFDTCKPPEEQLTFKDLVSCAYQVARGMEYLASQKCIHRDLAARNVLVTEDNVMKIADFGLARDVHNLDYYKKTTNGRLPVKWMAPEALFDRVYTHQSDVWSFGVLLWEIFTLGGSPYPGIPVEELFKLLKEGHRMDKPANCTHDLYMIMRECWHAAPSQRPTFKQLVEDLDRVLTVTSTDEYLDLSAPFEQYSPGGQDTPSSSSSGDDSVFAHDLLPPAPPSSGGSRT

Fer (mouse) = experiment: as above
Fes = Fes (UniProt P07332); experiment: as above
Sequence of Fes (P07332 whole entry, looked up): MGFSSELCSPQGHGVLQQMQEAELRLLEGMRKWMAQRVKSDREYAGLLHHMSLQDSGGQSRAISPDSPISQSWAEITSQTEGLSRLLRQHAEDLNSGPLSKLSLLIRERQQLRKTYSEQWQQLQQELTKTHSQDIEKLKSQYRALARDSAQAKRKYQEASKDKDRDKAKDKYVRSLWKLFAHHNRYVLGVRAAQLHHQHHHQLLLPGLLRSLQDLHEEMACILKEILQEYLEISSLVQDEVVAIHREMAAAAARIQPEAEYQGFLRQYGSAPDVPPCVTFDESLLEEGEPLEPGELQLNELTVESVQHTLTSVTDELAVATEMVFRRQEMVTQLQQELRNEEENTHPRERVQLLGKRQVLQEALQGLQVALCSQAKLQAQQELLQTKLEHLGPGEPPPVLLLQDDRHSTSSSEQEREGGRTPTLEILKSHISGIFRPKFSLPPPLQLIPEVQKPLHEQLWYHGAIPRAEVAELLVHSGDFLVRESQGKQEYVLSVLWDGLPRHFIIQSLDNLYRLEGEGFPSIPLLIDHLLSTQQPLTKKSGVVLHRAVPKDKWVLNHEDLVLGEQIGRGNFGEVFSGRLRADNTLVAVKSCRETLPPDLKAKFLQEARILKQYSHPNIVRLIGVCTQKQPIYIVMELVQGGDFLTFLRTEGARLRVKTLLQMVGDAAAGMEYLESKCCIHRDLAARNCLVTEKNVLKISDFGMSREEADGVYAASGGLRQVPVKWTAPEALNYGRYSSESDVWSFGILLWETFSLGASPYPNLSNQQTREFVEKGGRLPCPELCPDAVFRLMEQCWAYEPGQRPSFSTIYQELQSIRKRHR

Fyn = Fyn (UniProt P06241); experiment: as above
Sequence of Fyn (P06241 whole entry, looked up): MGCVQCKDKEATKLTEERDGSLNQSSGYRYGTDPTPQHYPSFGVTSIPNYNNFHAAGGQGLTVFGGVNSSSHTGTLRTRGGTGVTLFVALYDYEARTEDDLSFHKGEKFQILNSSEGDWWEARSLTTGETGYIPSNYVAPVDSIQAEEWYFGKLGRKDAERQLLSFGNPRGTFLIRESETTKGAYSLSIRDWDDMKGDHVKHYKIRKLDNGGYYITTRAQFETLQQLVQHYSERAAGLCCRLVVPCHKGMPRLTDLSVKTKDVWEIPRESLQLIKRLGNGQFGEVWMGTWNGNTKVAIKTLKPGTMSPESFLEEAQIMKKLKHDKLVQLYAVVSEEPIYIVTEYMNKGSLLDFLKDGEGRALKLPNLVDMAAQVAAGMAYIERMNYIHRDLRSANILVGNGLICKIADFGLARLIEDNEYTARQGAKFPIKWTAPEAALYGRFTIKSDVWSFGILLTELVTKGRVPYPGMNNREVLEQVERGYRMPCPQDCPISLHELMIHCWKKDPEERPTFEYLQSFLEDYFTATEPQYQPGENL

Hck = Hck (UniProt P08631); experiment: as above
Sequence of Hck (P08631 whole entry, looked up): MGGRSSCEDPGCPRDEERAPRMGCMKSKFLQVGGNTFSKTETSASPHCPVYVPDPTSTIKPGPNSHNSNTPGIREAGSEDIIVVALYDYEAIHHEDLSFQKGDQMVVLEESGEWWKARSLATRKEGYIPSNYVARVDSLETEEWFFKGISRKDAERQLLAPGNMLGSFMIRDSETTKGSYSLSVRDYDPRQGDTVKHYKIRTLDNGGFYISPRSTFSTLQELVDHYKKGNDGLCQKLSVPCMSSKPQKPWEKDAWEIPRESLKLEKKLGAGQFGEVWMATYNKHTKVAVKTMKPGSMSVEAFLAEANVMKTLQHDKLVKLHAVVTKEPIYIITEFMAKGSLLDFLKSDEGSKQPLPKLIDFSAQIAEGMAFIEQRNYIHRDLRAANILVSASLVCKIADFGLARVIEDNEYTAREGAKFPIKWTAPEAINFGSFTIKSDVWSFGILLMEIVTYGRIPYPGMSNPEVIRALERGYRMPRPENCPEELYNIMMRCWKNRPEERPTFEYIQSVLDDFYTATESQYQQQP

Jak2 = Jak2 (UniProt O60674); experiment: as above
Sequence of Jak2 (O60674 whole entry, looked up): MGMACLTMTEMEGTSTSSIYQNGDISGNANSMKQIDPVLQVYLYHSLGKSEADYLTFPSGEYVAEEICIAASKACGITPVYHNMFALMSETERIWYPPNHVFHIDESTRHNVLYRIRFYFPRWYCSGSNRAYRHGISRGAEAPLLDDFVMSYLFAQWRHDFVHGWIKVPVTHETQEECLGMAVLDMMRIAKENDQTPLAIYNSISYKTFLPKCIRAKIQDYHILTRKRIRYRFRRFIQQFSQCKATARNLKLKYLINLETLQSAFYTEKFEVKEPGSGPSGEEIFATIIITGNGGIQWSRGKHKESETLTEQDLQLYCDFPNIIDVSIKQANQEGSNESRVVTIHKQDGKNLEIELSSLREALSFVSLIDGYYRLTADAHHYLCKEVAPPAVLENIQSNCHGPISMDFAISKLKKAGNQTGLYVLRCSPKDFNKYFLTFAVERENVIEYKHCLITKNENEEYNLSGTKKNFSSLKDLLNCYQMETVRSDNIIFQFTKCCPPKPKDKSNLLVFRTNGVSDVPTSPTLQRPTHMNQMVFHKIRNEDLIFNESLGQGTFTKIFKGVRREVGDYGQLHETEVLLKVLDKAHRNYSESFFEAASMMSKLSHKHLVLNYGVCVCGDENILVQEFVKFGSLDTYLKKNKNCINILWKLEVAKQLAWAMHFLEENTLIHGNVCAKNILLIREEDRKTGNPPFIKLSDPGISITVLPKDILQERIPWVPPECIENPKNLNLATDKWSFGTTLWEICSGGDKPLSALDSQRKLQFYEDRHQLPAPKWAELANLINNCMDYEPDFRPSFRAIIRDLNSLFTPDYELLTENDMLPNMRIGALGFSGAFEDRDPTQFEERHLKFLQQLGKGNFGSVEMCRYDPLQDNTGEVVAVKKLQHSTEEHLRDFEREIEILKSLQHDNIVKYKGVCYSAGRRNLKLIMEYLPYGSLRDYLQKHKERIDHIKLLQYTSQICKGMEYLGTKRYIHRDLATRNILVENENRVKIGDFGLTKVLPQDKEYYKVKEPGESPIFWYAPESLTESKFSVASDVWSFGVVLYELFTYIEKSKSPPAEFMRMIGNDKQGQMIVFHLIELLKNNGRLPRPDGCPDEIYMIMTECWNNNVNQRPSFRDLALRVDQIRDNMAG

MERTK = MERTK (UniProt Q12866); experiment: as above
Sequence of MERTK (Q12866 whole entry, looked up): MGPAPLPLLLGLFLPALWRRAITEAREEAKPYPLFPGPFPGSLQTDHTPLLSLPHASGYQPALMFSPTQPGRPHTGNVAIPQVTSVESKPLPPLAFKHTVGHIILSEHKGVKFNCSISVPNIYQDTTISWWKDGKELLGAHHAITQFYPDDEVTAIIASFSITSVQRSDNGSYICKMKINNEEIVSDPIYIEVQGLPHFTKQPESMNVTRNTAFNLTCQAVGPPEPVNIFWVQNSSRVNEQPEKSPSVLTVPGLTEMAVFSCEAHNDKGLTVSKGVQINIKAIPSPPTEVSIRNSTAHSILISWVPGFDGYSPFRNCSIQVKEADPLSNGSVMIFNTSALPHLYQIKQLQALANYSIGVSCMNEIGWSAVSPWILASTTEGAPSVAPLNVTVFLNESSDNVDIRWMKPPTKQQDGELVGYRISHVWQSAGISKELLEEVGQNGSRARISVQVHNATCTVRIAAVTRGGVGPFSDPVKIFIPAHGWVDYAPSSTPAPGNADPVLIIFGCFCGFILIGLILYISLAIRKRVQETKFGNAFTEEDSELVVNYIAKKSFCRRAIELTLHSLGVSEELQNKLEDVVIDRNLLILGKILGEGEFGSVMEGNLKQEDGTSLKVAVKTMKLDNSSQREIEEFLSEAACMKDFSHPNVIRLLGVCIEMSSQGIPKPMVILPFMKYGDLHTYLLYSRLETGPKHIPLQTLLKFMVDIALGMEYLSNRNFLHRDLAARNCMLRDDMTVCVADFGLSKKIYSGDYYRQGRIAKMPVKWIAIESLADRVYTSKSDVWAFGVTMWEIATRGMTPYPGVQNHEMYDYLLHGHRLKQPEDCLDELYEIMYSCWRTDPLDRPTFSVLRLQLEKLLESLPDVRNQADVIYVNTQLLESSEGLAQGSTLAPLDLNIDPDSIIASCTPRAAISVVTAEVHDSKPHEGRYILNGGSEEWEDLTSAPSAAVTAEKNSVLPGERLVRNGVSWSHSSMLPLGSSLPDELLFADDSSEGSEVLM

c-Abl (mouse) = experiment: as above
c-Src = experiment: as above
Grb2 SH2 = Grb2 SH2 (UniProt P62993); experiment: SH2 binding enrichment of the phosphorylated peptide, bacterial display (enrichment ratio); higher = better substrate or ligand; peptides without Tyr show the background
SHP2-C SH2 = experiment: as above
c-Src SH2 = experiment: as above
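For SH2 binding enrichment of the phosphorylated peptide, bacterial display in this document: peptide library displayed on the E. coli surface as eCPX fusions, selected cells deep-sequenced, score is each peptide's frequency after selection divided by its frequency in the input.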
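For phosphorylation enrichment, bacterial display in this document: 11-residue human phosphosite peptides and single-mutation variants displayed on the E. coli surface, counted by deep sequencing, each peptide's frequency after selection divided by its frequency in the unselected input library; frequency after pTyr selection over input frequency; kinase dosed for 20-30% of maximal phosphorylation in three min.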

SH2 binding enrichment (Grb2 SH2)	SH2 binding enrichment (SHP2-C SH2)	SH2 binding enrichment (c-Src SH2)	Sequence	phosphorylation enrichment (AncSZ)	phosphorylation enrichment (EPHB1)	phosphorylation enrichment (EPHB2)	phosphorylation enrichment (FGFR1)	phosphorylation enrichment (FGFR3)	phosphorylation enrichment (Fer (mouse))	phosphorylation enrichment (Fes)	phosphorylation enrichment (Fyn)	phosphorylation enrichment (Hck)	phosphorylation enrichment (Jak2)	phosphorylation enrichment (MERTK)	phosphorylation enrichment (c-Abl (mouse))	phosphorylation enrichment (c-Src)
1.32	1.4	0.842	KQLYAYKMLMA [TMC2_Y209]	0.629	0.62	0.445	0.515	0.496	0.384	0.72	0.39	0.458	0.669	0.368	0.57	0.383
0.787	0.824	0.513	PGPQSYPTVTG [PAX5_Y299_I301T]	0.819	0.79	0.725	0.811	0.539	0.63	0.888	0.828	0.582	0.892	0.707	1.06	0.594
0.894	0.86	0.567	GRDQPYSGAGD [TYRO3_Y828]	0.442	0.293	0.457	0.559	0.357	0.31	0.765	0.623	0.445	0.508	0.383	0.359	0.356
1.26	1.61	0.919	QTLEAYIRWNK [SPAST_Y604]	1.2	0.703	0.588	0.615	0.935	0.62	1.44	0.452	0.472	1.09	0.45	0.913	0.488
0.879	0.844	0.464	EKQVAYCPSGK [ROS1_Y2323]	0.634	0.413	0.445	0.49	0.505	0.32	0.795	0.383	0.442	0.638	0.412	0.567	0.358
0.798	0.646	0.467	GVKLTYGDAQS [SLC28A1_Y404_N409S]	0.599	0.472	0.34	0.429	0.453	0.373	0.646	0.426	0.456	0.46	0.335	0.52	0.349
0.894	1.35	0.716	CTTIHYIYMCN [TP53_Y234_N235I]	0.728	0.459	0.461	0.404	0.548	0.478	0.989	0.254	0.322	0.907	0.281	0.742	0.263
0.662	0.587	1.65	RSIGEYDVLRG [PRKDC_Y2936]	0.795	0.738	0.779	0.36	0.394	0.428	0.786	0.671	3.99	0.73	0.536	1.55	0.974
0.808	0.435	0.427	LGSNTYPFLLM [SAG_Y120_T125M]	1.12	0.835	0.783	1.91	1.86	0.646	1.73	0.384	0.492	1.31	0.36	1.05	0.713
1.14	1.96	0.7	RNFVHYVQGLK [VWF_Y1400_R1399H]	0.875	0.511	0.515	0.429	0.52	0.349	0.833	0.613	0.369	0.605	0.544	0.669	0.583
0.713	0.454	0.292	RLFARYFQGDL [PDK3_Y337_YF]	0.826	0.416	0.547	0.572	0.627	0.474	0.882	0.499	0.723	0.545	0.525	0.524	0.481
0.869	0.785	0.732	EQPNPYMVLDI [ROCK2_Y1197_S1194P]	1.15	0.653	0.571	1.13	1.09	2.87	1.07	2.46	1.23	1.06	2.06	0.575	3.03
1.11	0.928	0.845	GCKNHYDKDKP [THAP1_Y14_R13H]	0.583	0.396	0.521	0.555	0.562	0.521	1.02	0.423	0.411	0.616	0.504	0.736	0.445
0.688	0.56	0.455	LHQSTYQCFDV [SLC7A14_Y693_R695C_YF]	1.25	2.34	0.896	1.14	1.11	2.23	1.25	3.33	1.42	1.14	2.26	1.05	5.09
1.24	1.06	0.76	GPSTPYTKSKC [SMARCC2_Y324_R329C]	0.584	0.35	0.408	0.362	0.479	0.393	0.534	0.403	0.395	0.573	0.396	0.55	0.36
1.48	0.362	0.373	PSNTEYPGPHS [TP63_Y171_D170E]	0.806	0.774	0.671	0.56	0.497	0.498	0.832	0.507	0.477	0.568	0.383	0.696	0.41
0.584	0.657	0.609	FGLPRYRWLTH [TSPAN12_Y143_YF]	1.01	0.526	0.692	0.529	0.468	0.446	0.858	0.552	0.526	0.687	0.585	0.616	0.448
0.781	0.566	0.433	TLKDVYDDGKF [RPS6KA3_Y483_YF]	0.988	0.542	0.513	0.614	0.66	0.488	1.04	0.548	0.66	0.655	0.515	0.549	0.625

Continued, sequence first:

Sequence	SH2 binding enrichment (Grb2 SH2)	SH2 binding enrichment (SHP2-C SH2)	SH2 binding enrichment (c-Src SH2)	phosphorylation enrichment (AncSZ)	phosphorylation enrichment (EPHB1)	phosphorylation enrichment (EPHB2)	phosphorylation enrichment (FGFR1)	phosphorylation enrichment (FGFR3)	phosphorylation enrichment (Fer (mouse))	phosphorylation enrichment (Fes)	phosphorylation enrichment (Fyn)	phosphorylation enrichment (Hck)	phosphorylation enrichment (Jak2)	phosphorylation enrichment (MERTK)	phosphorylation enrichment (c-Abl (mouse))	phosphorylation enrichment (c-Src)
FGVTLYPNSRE [MEP1A_Y472]	0.891	0.858	0.638	1.02	0.675	0.68	0.556	0.766	0.398	1.17	0.432	0.599	0.92	0.714	0.995	0.541
NFAKMYCNPDA [KNL1_Y489_YF]	0.789	0.633	2.03	0.942	0.502	0.706	0.569	0.636	0.517	1.02	0.569	0.572	0.766	0.536	0.836	0.538
AKNKDYMSFIR [GNE_Y197_I200F]	1.09	1.23	0.754	0.606	0.812	0.648	0.478	0.478	0.34	0.646	0.61	0.946	0.647	0.465	0.661	0.972
FFRDGCMPRQF [GSS_Y270_Y270C_YF]	0.849	0.496	0.506	0.863	0.533	0.518	0.416	0.606	0.489	1.2	0.464	0.497	0.949	0.386	0.717	0.463
KVPRHYDDPGK [FOXG1_Y246]	1.26	1.2	1.56	0.785	0.414	0.373	0.428	0.712	1.11	1.16	0.443	0.481	1.25	0.462	1.01	0.505
MDQAEYQAKIR [DHX58_Y518]	0.754	1.04	0.612	0.616	0.299	0.476	0.441	0.412	0.433	0.708	0.477	0.424	0.659	0.446	0.729	0.43
EVTQDYGLDPK [FH_Y110_N107T]	0.672	0.648	0.461	1.32	0.606	0.637	0.558	0.902	0.625	1.36	0.513	0.574	1.06	0.528	0.842	0.504
FGDTPYIPFRD [CDC14C_Y132]	0.809	0.757	0.602	0.764	0.495	0.458	0.522	0.662	0.542	0.905	0.55	0.54	0.646	0.445	0.589	0.781
MKKKTYAMGGG [GAN_Y424_I423T]	0.728	0.233	0.438	0.705	0.857	1.09	0.653	0.531	0.567	0.862	0.428	0.908	0.865	0.578	0.761	1
VRQQVYKKVEE [HADHA_Y283]	0.736	0.513	0.427	0.617	0.378	0.411	0.344	0.536	0.331	0.716	0.44	0.387	0.639	0.346	0.446	0.397
IGGHAYGDQFR [IDH1_Y135_R132G_YF]	0.826	0.852	0.571	0.464	0.3	0.324	0.351	0.405	0.259	0.567	0.296	0.36	0.499	0.306	0.418	0.317
PVQAAYKKVVA [HBB_Y131_Q132K]	0.834	0.613	0.524	0.645	0.545	0.278	0.534	0.485	0.226	0.762	0.506	0.479	0.486	0.578	0.73	0.687
PLQSEYSSIST [ITGB4_Y1760_T1764S]	0.844	0.826	1.17	2.59	1.81	2.28	0.944	0.925	1.08	1.28	1.27	1.93	0.822	0.582	1.49	1.3
AFSTVYKGLWI [EGFR_Y727_G724S]	0.949	1.5	0.653	1.01	0.578	0.498	0.504	0.67	0.677	1.1	0.433	0.445	1.1	0.395	0.814	0.455
CLEKEYFDQHF [NPC1_Y394_R389C]	0.906	0.547	0.752	1.53	0.581	0.572	0.949	1.13	0.593	1.32	0.514	0.508	1.04	0.406	0.902	0.585
